Experimental data from patent US20230136228A1 (LAMKAP BIO ALPHA, published 2023).

T1: human CEACAM4 (human, UniProt O75871 36-244)
T1 construct: whole, on cells
T1 sequence (looked up): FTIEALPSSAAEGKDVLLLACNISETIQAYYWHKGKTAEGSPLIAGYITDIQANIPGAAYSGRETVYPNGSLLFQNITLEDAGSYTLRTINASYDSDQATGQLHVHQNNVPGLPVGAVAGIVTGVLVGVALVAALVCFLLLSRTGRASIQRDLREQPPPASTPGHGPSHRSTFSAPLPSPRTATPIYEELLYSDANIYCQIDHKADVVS

T2: human CEACAM1 (human, UniProt P13688 35-526)
T2 construct: whole, on cells
T2 sequence (looked up): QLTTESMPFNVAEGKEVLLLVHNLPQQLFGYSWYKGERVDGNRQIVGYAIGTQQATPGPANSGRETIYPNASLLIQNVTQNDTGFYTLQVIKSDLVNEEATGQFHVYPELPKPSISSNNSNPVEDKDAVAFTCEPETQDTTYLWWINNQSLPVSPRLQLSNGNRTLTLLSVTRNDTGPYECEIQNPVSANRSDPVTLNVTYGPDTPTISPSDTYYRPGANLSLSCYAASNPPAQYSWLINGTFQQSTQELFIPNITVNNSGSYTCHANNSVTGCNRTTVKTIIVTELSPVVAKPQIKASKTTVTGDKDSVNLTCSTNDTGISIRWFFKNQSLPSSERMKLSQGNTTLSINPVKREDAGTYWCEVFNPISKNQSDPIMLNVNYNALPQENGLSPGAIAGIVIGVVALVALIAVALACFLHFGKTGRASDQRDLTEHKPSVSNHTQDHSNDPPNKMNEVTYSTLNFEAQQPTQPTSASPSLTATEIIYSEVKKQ

T3: human CEACAM5 (carcinoembryonic antigen, CEA), cell surface (human, UniProt P06731 35-685)
T3 construct: whole, on cells; also called CD66e
T3 sequence (looked up): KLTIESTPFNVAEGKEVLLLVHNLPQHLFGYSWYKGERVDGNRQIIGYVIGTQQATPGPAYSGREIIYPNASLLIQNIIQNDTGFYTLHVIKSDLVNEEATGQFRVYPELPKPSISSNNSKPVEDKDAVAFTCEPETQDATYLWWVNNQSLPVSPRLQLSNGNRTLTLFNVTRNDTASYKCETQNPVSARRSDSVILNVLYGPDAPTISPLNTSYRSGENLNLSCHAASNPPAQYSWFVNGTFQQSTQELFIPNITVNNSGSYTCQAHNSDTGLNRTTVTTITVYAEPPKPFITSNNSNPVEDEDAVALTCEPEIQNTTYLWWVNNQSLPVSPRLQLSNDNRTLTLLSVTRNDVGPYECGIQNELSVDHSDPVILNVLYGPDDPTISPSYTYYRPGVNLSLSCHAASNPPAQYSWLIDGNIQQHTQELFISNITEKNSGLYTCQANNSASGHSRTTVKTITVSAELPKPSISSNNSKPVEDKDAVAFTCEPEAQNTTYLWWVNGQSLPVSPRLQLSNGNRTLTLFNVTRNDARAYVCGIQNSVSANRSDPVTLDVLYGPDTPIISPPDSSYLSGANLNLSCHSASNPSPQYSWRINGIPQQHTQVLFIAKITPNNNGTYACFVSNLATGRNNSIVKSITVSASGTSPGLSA

T4: human CEACAM6 (human, UniProt P40199 35-320)
T4 construct: whole, on cells; also called CD66c
T4 sequence (looked up): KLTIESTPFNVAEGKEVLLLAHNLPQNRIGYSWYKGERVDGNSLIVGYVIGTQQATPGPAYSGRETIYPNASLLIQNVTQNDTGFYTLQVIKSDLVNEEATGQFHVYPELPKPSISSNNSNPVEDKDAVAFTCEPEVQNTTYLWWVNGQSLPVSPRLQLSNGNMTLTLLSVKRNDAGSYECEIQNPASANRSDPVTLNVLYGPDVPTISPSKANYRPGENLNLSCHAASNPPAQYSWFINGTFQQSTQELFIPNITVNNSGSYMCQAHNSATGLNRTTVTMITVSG


Assays:
Assay in all cases: flow cytometry, MFI on transfected PEAK cells divided by MFI on WT PEAK cells
human CEACAM4 = target: T1, human CEACAM4
Procedure: (§1) Similarly, vectors encoding the full-length version of cyno CEACAM 5 and 6 are also used to express these proteins at the surface of PEAK and/or CHO cells. Non-transfected PEAK and/or CHO cells are used as negative control. Cells are harvested, counted, checked for viability and resuspended at 3×10⁶ cells/ml in FACS buffer (PBS 2% BSA, 0.1% NaN₃). 100 μl of the cell suspension are distributed in V-bottom 96-well plates (3×10⁵ cells/well). The supernatant is removed by centrifugation 3 minutes at 4° C., 1300 rpm and the cells incubated for 15 minutes at 4° C. with increasing concentrations of the antibody according to the invention. The antibodies carrying the anti-CEACAM5 arms to test are diluted in FACS buffer and the concentration range is 30 pM-500 nM. Cells are washed twice with cold FACS buffer and re-incubated for further 15 minutes at 4° C. with a compatible anti-human IgG secondary antibody. Cells are washed twice with cold FACS buffer and resuspended in 300 μl FACS buffer with 1:1500-diluted TOPRO-3 (Invitrogen). Fluorescence is measured using a FACSCalibur™ (BD Biosciences) or a Cytoflex Platform (Beckman Coulter). Dose-response binding curves are fitted using GraphPad Prism8 software. In the same manner, CEACAM1, CEACAM6 and other CEACAMs can be characterized.
(§2) For the bispecific antibodies AB17L3-1/N, AB71L3-1/N, AB72L3-1/N, AB73L3-1/N the MFI measured for binding to CEACAM5 transfected cells was found between 29000 and 41000 (Table 2). In contrast MFI found by using PEAK cells transfected with CEACAM 1,3,4,6,8 were found below 1000 with the only exception of a strong signal for AB72L3-1/N on CEACAM8 transfected cells. When MFI values obtained on transfected cells expressing any given CEACAM are divided by the values obtained on WT PEAK cells, “factors to PEAK WT” can be calculated (Table 3). With the exception of AB72L3-1/N, the antibodies of the invention are all specific to CEACAM5, as the “factor to PEAK WT” values are all below 2.0.

human CEACAM1 = target: T2, human CEACAM1
Procedure: as §1, §2

[1] = target: T3, human CEACAM5 (carcinoembryonic …)
Procedure: as §1, §2

human CEACAM6 = target: T4, human CEACAM6
Procedure: as §1, §2

| Binder | Factor to PEAK WT (human CEACAM4) [fold] | Factor to PEAK WT (human CEACAM1) [fold] | Factor to PEAK WT [1] [fold] | Factor to PEAK WT (human CEACAM6) [fold] |
| --- | --- | --- | --- | --- |
| AB17L3-1/N (bispecific antibody, human IgG1, kappa, lambda, L234A L235A, Kappa-lambda body, lead optimization wave 1) heavy: EVQLVESGGGLVQPGGSLKLSCAASGFTFNTYAMNWVRQAPGKGLEWVGRIRSKYNNYATYYADSVKDRFTISRDDSKNTAYLQMNSLKTEDTAVYYCVRHGNFGNSYVSWFAYWGQGTLVTVSSASTKGPSVFPLAPSSKSTSGGTAALGCLVKDYFPEPVTVSWNSGALTSGVHTFPAVLQSSGLYSLSSVVTVPSSSLGTQTYICNVNHKPSNTKVDKRVEPKSCDKTHTCPPCPAPEAAGGPSVFLFPPKPKDTLMISRTPEVTCVVVDVSHEDPEVKFNWYVDGVEVHNAKTKPREEQYNSTYRVVSVLTVLHQDWLNGKEYKCKVSNKALAAPIEKTISKAKGQPREPQVYTLPPSREEMTKNQVSLTCLVKGFYPSDIAVEWESNGQPENNYKTTPPVLDSDGSFFLYSKLTVDKSRWQQGNVFSCSVMHEALHNHYTQKSLSLSPG light 1: EIVLTQSPATLSLSPGERATLSCRASQSVNSNLNWYQQKPGQAPRLLIYHGSNRATGIPARFSGSGSGTDFTLTISSLEPEDFAVYYCQQFDYFKEHNTFGQGTKVEIKRTVAAPSVFIFPPSDEQLKSGTASVVCLLNNFYPREAKVQWKVDNALQSGNSQESVTEQDSKDSTYSLSSTLTLSKADYEKHKVYACEVTHQGLSSPVTKSFNRGEC light 2: QTVVTQEPSLTVSPGGTVTLTCRSSTGAVTTSNYANWFQQKPGQAPRGLIGGTNKRAPGTPARFSGSLLGGKAALTLSGAQPEDEAEYYCALWYKQRWVFGGGTKLTVLGQPKAAPSVTLFPPSSEELQANKATLVCLISDFYPGAVTVAWKADSSPVKAGVETTTPSKQSNNKYAASSYLSLTPEQWKSHRSYSCQVTHEGSTVEKTVAPTECS | 0.8 | 1.2 | 55.1 | 1 |
| AB1L3-1/N (bispecific antibody, human IgG1, kappa, lambda, L234A L235A, Kappa-lambda body: common heavy chain (hIgG1 L234A+L235A+P329A), kappa CEA light chain AB1, lambda CD3 light chain L3-1 (1A4); also called parental KL bispecific antibody) heavy: EVQLVESGGGLVQPGGSLKLSCAASGFTFNTYAMNWVRQAPGKGLEWVGRIRSKYNNYATYYADSVKDRFTISRDDSKNTAYLQMNSLKTEDTAVYYCVRHGNFGNSYVSWFAYWGQGTLVTVSSASTKGPSVFPLAPSSKSTSGGTAALGCLVKDYFPEPVTVSWNSGALTSGVHTFPAVLQSSGLYSLSSVVTVPSSSLGTQTYICNVNHKPSNTKVDKRVEPKSCDKTHTCPPCPAPEAAGGPSVFLFPPKPKDTLMISRTPEVTCVVVDVSHEDPEVKFNWYVDGVEVHNAKTKPREEQYNSTYRVVSVLTVLHQDWLNGKEYKCKVSNKALAAPIEKTISKAKGQPREPQVYTLPPSREEMTKNQVSLTCLVKGFYPSDIAVEWESNGQPENNYKTTPPVLDSDGSFFLYSKLTVDKSRWQQGNVFSCSVMHEALHNHYTQKSLSLSPG light 1: EIVLTQSPATLSLSPGERATLSCRASQSVNSNLNWYQQKPGQAPRLLIYHGSNRATGIPARFSGSGSGTDFTLTISSLEPEDFAVYYCQQFDLRHEHNTFGQGTKVEIKRTVAAPSVFIFPPSDEQLKSGTASVVCLLNNFYPREAKVQWKVDNALQSGNSQESVTEQDSKDSTYSLSSTLTLSKADYEKHKVYACEVTHQGLSSPVTKSFNRGEC light 2: QTVVTQEPSLTVSPGGTVTLTCRSSTGAVTTSNYANWFQQKPGQAPRGLIGGTNKRAPGTPARFSGSLLGGKAALTLSGAQPEDEAEYYCALWYKQRWVFGGGTKLTVLGQPKAAPSVTLFPPSSEELQANKATLVCLISDFYPGAVTVAWKADSSPVKAGVETTTPSKQSNNKYAASSYLSLTPEQWKSHRSYSCQVTHEGSTVEKTVAPTECS | 0.7 | 1 | 16.8 | 0.8 |
| AB71L3-1/N (bispecific antibody, human IgG1, kappa, lambda, L234A L235A, Kappa-lambda body, lead optimization wave 2) heavy: EVQLVESGGGLVQPGGSLKLSCAASGFTFNTYAMNWVRQAPGKGLEWVGRIRSKYNNYATYYADSVKDRFTISRDDSKNTAYLQMNSLKTEDTAVYYCVRHGNFGNSYVSWFAYWGQGTLVTVSSASTKGPSVFPLAPSSKSTSGGTAALGCLVKDYFPEPVTVSWNSGALTSGVHTFPAVLQSSGLYSLSSVVTVPSSSLGTQTYICNVNHKPSNTKVDKRVEPKSCDKTHTCPPCPAPEAAGGPSVFLFPPKPKDTLMISRTPEVTCVVVDVSHEDPEVKFNWYVDGVEVHNAKTKPREEQYNSTYRVVSVLTVLHQDWLNGKEYKCKVSNKALAAPIEKTISKAKGQPREPQVYTLPPSREEMTKNQVSLTCLVKGFYPSDIAVEWESNGQPENNYKTTPPVLDSDGSFFLYSKLTVDKSRWQQGNVFSCSVMHEALHNHYTQKSLSLSPG light 1: EIVLTQSPATLSLSPGERATLSCRASQSVNSNLNWYQQKPGQAPRLLIYHSSNRPHGIPARFSGSGSGTDFTLTISSLEPEDFAVYYCQQFDYFKEHNTFGQGTKVEIKRTVAAPSVFIFPPSDEQLKSGTASVVCLLNNFYPREAKVQWKVDNALQSGNSQESVTEQDSKDSTYSLSSTLTLSKADYEKHKVYACEVTHQGLSSPVTKSFNRGEC light 2: QTVVTQEPSLTVSPGGTVTLTCRSSTGAVTTSNYANWFQQKPGQAPRGLIGGTNKRAPGTPARFSGSLLGGKAALTLSGAQPEDEAEYYCALWYKQRWVFGGGTKLTVLGQPKAAPSVTLFPPSSEELQANKATLVCLISDFYPGAVTVAWKADSSPVKAGVETTTPSKQSNNKYAASSYLSLTPEQWKSHRSYSCQVTHEGSTVEKTVAPTECS | 0.7 | 1 | 79.7 | 1 |
